Laboratory results taken from the supplement of paper PMC10126150.
± gives the standard deviation of the averaged measurements.

system: ATP; test: switch fluorescence ratio, 500 uM ATP over buffer (Cy3 cluster intensity, sum of 5 cycles each) (fold (ratio)); higher = stronger signal-on switching upon ATP binding; sequences stand for … in TCGTCGGCAGCGTCAGATGTGTATAAGAGACAGTTTTTTTTTTTTTTTTTTTTTTTTT…TC; conditions: aptamer strand: ATP DNA aptamer (quencher-CACCTGGGGGAGTATTGCGGAGGAAGG + anchor), 100 nM annealed; ATP concentration: 500 uM
Method in brief: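 The quencher-labelled ATP aptamer, at 100 nM, was annealed to Cy3-labelled switching-strand clusters on a modified Illumina MiSeq flow-cell. The clusters were imaged in selection buffer, then after 15 min with 500 uM ATP at 22 °C, and this buffer/ATP cycle ran five times with NaOH stripping and re-annealing between runs. Per-cluster fluorescence ratios, summed target-cycle over summed buffer-cycle Cy3 intensity, were averaged per switch-domain sequence. Clusters outside 100-1000 RFU were excluded.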
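Also: ATP exposure 15 min at 22 °C before imaging.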

Row | Sequence | switch fluorescence ratio
1 | GTCGTAAAGG | 0.998 ± 0.021
2 | GTCGTAACAG | 0.9857 ± 0.0047
3 | GTCGTAGGGG | 1.03 ± 0.018
4 | GTCGTTCTGA | 0.99257 ± 0.00085
5 | GTCTAACGCG | 0.9698 ± 0.0072
6 | GTCTAACTTA | 1.01 ± 0.033
7 | GTCTATAATT | 0.9879 ± 0.0048
8 | GTCTCAAGGG | 0.981 ± 0.039
9 | GTCTGAAGGA | 0.9791 ± 0.0055
10 | GTCTGAGGCT | 0.9853 ± 0.0076
11 | GTCTGAGGGG | 0.9965 ± 0.0061
12 | GTCTGATTTG | 0.999 ± 0.023
13 | GTCTGGCTAC | 1.22 ± 0.061
14 | GTCTGTTCTT | 0.951 ± 0.019
15 | GTCTTTAAGG | 0.964 ± 0.036
16 | GTGAAAAAGA | 1.005 ± 0.0075
17 | GTGAAAAGCA | 1.04 ± 0.014
18 | GTGAAGGAGC | 0.995 ± 0.017
19 | GTGAAGGGTT | 0.993 ± 0.039
20 | GTGACACACC | 1.15 ± 0.039
21 | GTGACCCGGA | 0.97057 ± 0.00025
22 | GTGAGAGCTG | 0.952 ± 0.015
23 | GTGAGCCGGG | 1.01 ± 0.014
24 | GTGAGCGGGG | 0.974 ± 0.037
25 | GTGAGGATTT | 0.986 ± 0.013

Row | Sequence | switch fluorescence ratio
26 | GTGAGGCCGC | 1.0626 ± 0.001
27 | GTGAGGCGCT | 1.03 ± 0.011
28 | GTGAGGCGGG | 1.009 ± 0.0024
29 | GTGAGGGATA | 0.984 ± 0.043
30 | GTGAGGGGGT | 1.06 ± 0.14
31 | GTGAGTGGGG | 0.972 ± 0.021
32 | GTGAGTTTTA | 0.971 ± 0.019
33 | GTGATCAAGC | 0.984 ± 0.028
34 | GTGATCAGTG | 0.98698 ± 0.00016
35 | GTGATCATCG | 1.0081 ± 0.00023
36 | GTGATGGGAC | 1.02 ± 0.0077
37 | GTGATGTTGT | 0.977 ± 0.037
38 | GTGATTGATC | 1.04 ± 0.023
39 | GTGATTGGGA | 0.963 ± 0.058
40 | GTGATTTCGG | 1.022 ± 0.0095
41 | GTGATTTTTG | 1.01 ± 0.063
42 | GTGCAAATTG | 0.997 ± 0.024
43 | GTGCAAGGTA | 1 ± 0.014
44 | GTGCAATAGT | 3.71 ± 0.63
45 | GTGCAGGTGC | 1.37 ± 0.026
46 | GTGCCCACGT | 1 ± 0.039
47 | GTGCCTCCTG | 1.03 ± 0.018
48 | GTGCCTTAGG | 0.99797 ± 0.00039
49 | GTGCGCATGG | 1.13 ± 0.067
50 | GTGCGGAGTG | 0.97 ± 0.041

Row | Sequence | switch fluorescence ratio
51 | GTGCGGCCAA | 1.02 ± 0.044
52 | GTGCGTCTTT | 1.01 ± 0.041
53 | GTGCTAAATA | 1.02 ± 0.0067
54 | GTGCTAACCT | 1.271 ± 0.011
55 | GTGCTGGGCG | 0.994 ± 0.028
56 | GTGCTGGGGG | 1.02 ± 0.02
57 | GTGCTTGCGG | 1.01 ± 0.036
58 | GTGCTTGGAA | 0.994 ± 0.033
59 | GTGGAAAATT | 0.987 ± 0.018
60 | GTGGAAGAGT | 0.999 ± 0.018
61 | GTGGAAGGTT | 0.995 ± 0.014
62 | GTGGACAGGC | 1 ± 0.02
63 | GTGGACCTGA | 1.07 ± 0.02
64 | GTGGACTTCG | 1.0178 ± 0.001
65 | GTGGAGTTTG | 0.999 ± 0.012
66 | GTGGATAGTC | 0.992 ± 0.066
67 | GTGGATATTG | 1 ± 0.028
68 | GTGGATGCGG | 0.962 ± 0.038
69 | GTGGATGGGG | 1.05 ± 0.13
70 | GTGGCAAAAG | 1.02 ± 0.033
71 | GTGGCAGGAA | 0.964 ± 0.068
72 | GTGGCGAAGG | 0.993 ± 0.014
73 | GTGGCGCCGC | 0.959 ± 0.047
74 | GTGGCGTGGA | 0.991 ± 0.021
75 | GTGGCTATGG | 0.96188 ± 0.00027

Row | Sequence | switch fluorescence ratio
76 | GTGGCTCTGC | 0.973 ± 0.077
77 | GTGGCTGGGG | 1 ± 0.029
78 | GTGGGAAAG | 0.983 ± 0.016
79 | GTGGGAACCT | 1.45 ± 0.29
80 | GTGGGAAGGG | 0.996 ± 0.017
81 | GTGGGAGCGG | 1.02 ± 0.042
82 | GTGGGAGGGT | 0.984 ± 0.041
83 | GTGGGAGGTG | 1 ± 0.046
84 | GTGGGATGGA | 0.978 ± 0.014
85 | GTGGGATTTG | 0.9697 ± 0.0069
86 | GTGGGGATTC | 0.971 ± 0.037
87 | GTGGGGCCGA | 1.01 ± 0.031
88 | GTGGGGCGGA | 1.01 ± 0.023
89 | GTGGGGGAAG | 0.993 ± 0.039
90 | GTGGGGGACT | 1.28 ± 0.5
91 | GTGGGGGAGC | 0.985 ± 0.029
92 | GTGGGGGCTT | 0.947 ± 0.021
93 | GTGGGGGGTG | 1.02 ± 0.057
94 | GTGGGGGTAA | 0.9692 ± 0.0039
95 | GTGGGGTACA | 0.996 ± 0.049
96 | GTGGGGTGTT | 0.985 ± 0.02
97 | GTGGGTCAGG | 1.01 ± 0.013
98 | GTGGGTGCAG | 1.03 ± 0.041
99 | GTGGGTGCGG | 0.979 ± 0.051
100 | GTGGGTTATC | 1.004 ± 0.007

Row | Sequence | switch fluorescence ratio
101 | GTGGGTTGGG | 1.09 ± 0.058
102 | GTGGTAAGTT | 0.942 ± 0.026
103 | GTGGTAGGGA | 0.98 ± 0.019
104 | GTGGTATGGT | 1.02 ± 0.025
105 | GTGGTCCGCG | 1.017 ± 0.0015
106 | GTGGTCTGTG | 0.972 ± 0.018
107 | GTGGTGATAG | 0.9652 ± 0.0041
108 | GTGGTGCACG | 0.9971 ± 0.0026
109 | GTGGTGGAAA | 1 ± 0.0029
110 | GTGGTTAGAA | 0.9841 ± 0.0025
111 | GTGGTTAGGG | 1.01 ± 0.041
112 | GTGGTTAGGT | 1 ± 0.034
113 | GTGGTTATCG | 1.02 ± 0.043
114 | GTGGTTCCCG | 1 ± 0.0099
115 | GTGGTTGGCA | 0.968 ± 0.033
116 | GTGGTTTGAC | 0.99 ± 0.013
117 | GTGGTTTGGC | 1.01 ± 0.09
118 | GTGGTTTTTG | 0.968 ± 0.025
119 | GTGTAAACGT | 1.04 ± 0.05
120 | GTGTAAGGG | 1.03 ± 0.031
121 | GTGTAATTGG | 1.018 ± 0.0058
122 | GTGTACTCGA | 1.04 ± 0.019
123 | GTGTAGATTA | 1.02 ± 0.014
124 | GTGTAGGGAT | 0.964 ± 0.015
125 | GTGTATAGAT | 1.01 ± 0.011

Row | Sequence | switch fluorescence ratio
126 | GTGTATTTTT | 0.99 ± 0.024
127 | GTGTCAACGT | 0.978 ± 0.017
128 | GTGTCAACTA | 0.987 ± 0.016
129 | GTGTCCGGTA | 0.983 ± 0.037
130 | GTGTCTGAGC | 0.966 ± 0.031
131 | GTGTGAACGG | 0.958 ± 0.018
132 | GTGTGACTCG | 1.03 ± 0.062
133 | GTGTGAGTTA | 0.992 ± 0.034
134 | GTGTGATTTT | 0.992 ± 0.028
135 | GTGTGCAACT | 1.02 ± 0.024
136 | GTGTGCTGTG | 1.01 ± 0.063
137 | GTGTGCTTAG | 1.027 ± 0.004
138 | GTGTGCTTTG | 0.998 ± 0.048
139 | GTGTGGAGGT | 0.964 ± 0.016
140 | GTGTGGATTC | 0.998 ± 0.013
141 | GTGTGGGCTG | 1.0001 ± 0.0002
142 | GTGTGTCTCT | 0.999 ± 0.016
143 | GTGTTAACTG | 0.984 ± 0.028
144 | GTGTTAGGGA | 1.01 ± 0.015
145 | GTGTTAGTCG | 1.02 ± 0.1
146 | GTGTTATGGG | 0.978 ± 0.037
147 | GTGTTATTGA | 0.97161 ± 0.00039
148 | GTGTTATTTT | 0.998 ± 0.053
149 | GTGTTCAACG | 0.994 ± 0.04
150 | GTGTTCGACG | 0.995 ± 0.056

Row | Sequence | switch fluorescence ratio
151 | GTGTTCGAGT | 0.986 ± 0.034
152 | GTGTTCTTAT | 1.01 ± 0.011
153 | GTGTTGGGGG | 0.984 ± 0.039
154 | GTGTTTAAAA | 0.995 ± 0.013
155 | GTGTTTAGCT | 0.992 ± 0.044
156 | GTGTTTGGGT | 0.978 ± 0.03
157 | GTGTTTGGTT | 1.01 ± 0.053
158 | GTGTTTTTGA | 1.01 ± 0.034
159 | GTTAAAAGGC | 0.986 ± 0.023
160 | GTTAACCGGA | 1.01 ± 0.012
161 | GTTAACGCGT | 1.02 ± 0.02
162 | GTTAATGTCG | 1.056 ± 0.0053
163 | GTTACAAGAG | 0.9955 ± 0.0077
164 | GTTACACTCA | 1.032 ± 0.002
165 | GTTACGAGTT | 0.977 ± 0.012
166 | GTTACTGGAA | 1.04 ± 0.02
167 | GTTACTGTTC | 0.98 ± 0.13
168 | GTTACTTGTA | 0.978 ± 0.025
169 | GTTAGAAATG | 1.01 ± 0.011
170 | GTTAGAAGGT | 1 ± 0.018
171 | GTTAGAAGTG | 0.9855 ± 0.006
172 | GTTAGACGGT | 1.02 ± 0.041
173 | GTTAGACTCA | 1.01 ± 0.014
174 | GTTAGAGAGG | 0.9779 ± 0.0078
175 | GTTAGAGCGG | 1.02 ± 0.031

Row | Sequence | switch fluorescence ratio
176 | GTTAGCGGGG | 0.9823 ± 0.0048
177 | GTTAGGAATT | 0.985 ± 0.032
178 | GTTAGGAGTC | 0.992 ± 0.018
179 | GTTAGGCCCT | 1 ± 0.014
180 | GTTAGGCGGT | 1.01 ± 0.014
181 | GTTAGGGGAT | 1 ± 0.011
182 | GTTAGGTATT | 0.93 ± 0.023
183 | GTTAGGTGTG | 1.11 ± 0.13
184 | GTTAGGTTGC | 1.01 ± 0.046
185 | GTTAGGTTTG | 0.997 ± 0.029
186 | GTTAGTAGGA | 1.02 ± 0.019
187 | GTTAGTTGGA | 0.964 ± 0.025
188 | GTTATAGTTT | 0.985 ± 0.014
189 | GTTATATTG | 1.01 ± 0.031
190 | GTTATCTTTC | 1.07 ± 0.029
191 | GTTATGGGGC | 0.966 ± 0.043
192 | GTTATTAATT | 0.983 ± 0.0036
193 | GTTATTATGG | 1.013 ± 0.0084
194 | GTTATTATTA | 0.993 ± 0.019
195 | GTTATTGAAG | 0.982 ± 0.022
196 | GTTATTGAGT | 1.007 ± 0.0089
197 | GTTATTGTGT | 0.999 ± 0.028
198 | GTTATTGTTC | 0.975 ± 0.016
199 | GTTCAAGGGC | 0.996 ± 0.032
200 | GTTCAGGGGA | 1.27 ± 0.41
